Results: IntAct's records for PubMed 25910212

B1: Dual specificity protein phosphatase 23 (Homo sapiens), Q9BVJ7 (parent)
chain: MGVQPPNFSWVLPGRLAGLALPRLPAHYQFLLDLGVRHLVSLTERGPPHSDSCPGLTLHRLRIPDFCPPAPDQIDRFVQIVDEANARGEAVGVHCALGFGRTGTMLACYLVKERGLAAGDAIAEIRRLRPGSIETYEQEKAVFQFYQRTK
B2: ATP synthase mitochondrial F1 complex assembly factor 2 (Homo sapiens), Q8N5M1 (parent)
chain: MWRSCLRLRDGGRRLLNRPAGGPSASMSPGPTIPSPARAYAPPTERKRFYQNVSITQGEGGFEINLDHRKLKTPQAKLFTVPSEALAIAVATEWDSQQDTIKYYTMHLTTLCNTSLDNPTQRNKDQLIRAAVKFLDTDTICYRVEEPETLVELQRNEWDPIIEWAEKRYGVEISSSTSIMGPSIPAKTREVLVSHLASYNTWALQGIEFVAAQLKSMVLTLGLIDLRLTVEQAVLLSRLEEEYQIQKWGNIEWAHDYELQELRARTAAGTLFIHLCSESTTVKHKLLKE
partner: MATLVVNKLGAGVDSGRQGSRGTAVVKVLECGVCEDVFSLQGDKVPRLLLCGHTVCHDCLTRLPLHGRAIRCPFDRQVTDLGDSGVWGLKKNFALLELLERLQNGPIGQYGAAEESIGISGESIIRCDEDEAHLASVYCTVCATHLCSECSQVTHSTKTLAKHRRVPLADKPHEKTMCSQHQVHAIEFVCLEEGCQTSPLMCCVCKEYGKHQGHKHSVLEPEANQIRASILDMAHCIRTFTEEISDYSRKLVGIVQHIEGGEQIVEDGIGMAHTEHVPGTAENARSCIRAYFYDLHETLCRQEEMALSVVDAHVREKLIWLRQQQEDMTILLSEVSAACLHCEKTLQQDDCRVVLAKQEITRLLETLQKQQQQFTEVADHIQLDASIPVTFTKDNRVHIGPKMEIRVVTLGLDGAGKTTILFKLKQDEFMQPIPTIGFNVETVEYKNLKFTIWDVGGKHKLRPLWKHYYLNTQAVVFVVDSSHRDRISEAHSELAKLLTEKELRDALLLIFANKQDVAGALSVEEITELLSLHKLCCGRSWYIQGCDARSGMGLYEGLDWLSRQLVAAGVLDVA
B3: Synaptogyrin-1 (Homo sapiens), O43759-2 (parent)
chain: MEGGAYGAGKAGGAFDPYTLVRQPHTILRVVSWLFSIVVFGSIVNEGYLNSASEGEEFCIYNRNPNACSYGVAVGVLAFLTCLLYLALDVYFPQISSVKDRKKAVLSDIGVSAFWAFLWFVGFCYLANQWQVSKPKDNPLNEGTDAARAAIAFSFFSIFTWSLTAALAVRRFKDLSFQEEYSTLFPASAQP
partner: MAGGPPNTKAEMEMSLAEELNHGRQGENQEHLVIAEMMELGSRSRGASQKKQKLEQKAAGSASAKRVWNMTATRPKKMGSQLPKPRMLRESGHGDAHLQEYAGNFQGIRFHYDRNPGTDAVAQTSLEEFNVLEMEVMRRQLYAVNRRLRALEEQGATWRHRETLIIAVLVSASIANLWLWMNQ
B4: E3 ubiquitin-protein ligase Midline-1 (Homo sapiens), O15344 (parent)
chain: METLESELTCPICLELFEDPLLLPCAHSLCFNCAHRILVSHCATNESVESITAFQCPTCRHVITLSQRGLDGLKRNVTLQNIIDRFQKASVSGPNSPSETRRERAFDANTMTSAEKVLCQFCDQDPAQDAVKTCVTCEVSYCDECLKATHPNKKPFTGHRLIEPIPDSHIRGLMCLEHEDEKVNMYCVTDDQLICALCKLVGRHRDHQVAALSERYDKLKQNLESNLTNLIKRNTELETLLAKLIQTCQHVEVNASRQEAKLTEECDLLIEIIQQRRQIIGTKIKEGKVMRLRKLAQQIANCKQCIERSASLISQAEHSLKENDHARFLQTAKNITERVSMATASSQVLIPEINLNDTFDTFALDFSREKKLLECLDYLTAPNPPTIREELCTASYDTITVHWTSDDEFSVVSYELQYTIFTGQANVVSLCNSADSWMIVPNIKQNHYTVHGLQSGTKYIFMVKAINQAGSRSSEPGKLKTNSQPFKLDPKSAHRKLKVSHDNLTVERDESSSKKSHTPERFTSQGSYGVAGNVFIDSGRHYWEVVISGSTWYAIGLAYKSAPKHEWIGKNSASWALCRCNNNWVVRHNSKEIPIEPAPHLRRVGILLDYDNGSIAFYDALNSIHLYTFDVAFAQPVCPTFTVWNKCLTIITGLPIPDHLDCTEQLP
B5: Beta-crystallin A4 (Homo sapiens), P53673 (parent)
chain: MTLQCTKSAGPWKMVVWDEDGFQGRRHEFTAECPSVLELGFETVRSLKVLSGAWVGFEHAGFQGQQYILERGEYPSWDAWGGNTAYPAERLTSFRPAACANHRDSRLTIFEQENFLGKKGELSDDYPSLQAMGWEGNEVGSFHVHSGAWVCSQFPGYRGFQYVLECDHHSGDYKHFREWGSHAPTFQVQSIRRIQQ
partner: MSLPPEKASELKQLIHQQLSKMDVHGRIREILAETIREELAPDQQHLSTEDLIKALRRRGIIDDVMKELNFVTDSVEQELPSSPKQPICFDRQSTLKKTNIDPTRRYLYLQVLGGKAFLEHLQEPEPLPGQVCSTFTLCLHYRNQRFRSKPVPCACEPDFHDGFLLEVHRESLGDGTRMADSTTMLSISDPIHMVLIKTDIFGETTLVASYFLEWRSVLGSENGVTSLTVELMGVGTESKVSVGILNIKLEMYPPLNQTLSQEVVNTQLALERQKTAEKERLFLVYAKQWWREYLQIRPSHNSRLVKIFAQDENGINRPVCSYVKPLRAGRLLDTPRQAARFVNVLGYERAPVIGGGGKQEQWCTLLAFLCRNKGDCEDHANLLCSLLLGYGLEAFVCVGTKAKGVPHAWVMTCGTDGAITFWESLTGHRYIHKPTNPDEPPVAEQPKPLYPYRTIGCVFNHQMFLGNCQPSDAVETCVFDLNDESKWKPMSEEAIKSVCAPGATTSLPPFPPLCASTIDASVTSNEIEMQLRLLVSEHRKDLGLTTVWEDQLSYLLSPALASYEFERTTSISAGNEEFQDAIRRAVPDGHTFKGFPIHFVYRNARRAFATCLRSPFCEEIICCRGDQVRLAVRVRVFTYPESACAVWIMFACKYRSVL

Variants of: B1
Conditions: with exos8_human EXOSC8, Q96B26
Sequence of exos8_human EXOSC8, Q96B26 (Q96B26 whole entry): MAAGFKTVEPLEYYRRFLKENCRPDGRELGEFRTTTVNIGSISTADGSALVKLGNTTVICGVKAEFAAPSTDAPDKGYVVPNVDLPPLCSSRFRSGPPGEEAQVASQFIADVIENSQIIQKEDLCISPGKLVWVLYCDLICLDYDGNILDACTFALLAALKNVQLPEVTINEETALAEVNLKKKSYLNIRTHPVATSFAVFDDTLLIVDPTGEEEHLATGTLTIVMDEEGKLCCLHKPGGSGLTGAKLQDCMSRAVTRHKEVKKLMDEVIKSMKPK

Row | effect of a mutation on the interaction | Variant
1 | with no effect | G131S

Variants of: B2
Conditions: with tri23_human TRIM23, P36406

Row | effect of a mutation on the interaction | Variant
2 | disrupting interaction strength | W94R

Variants of: B3
Conditions: with fate1_human FATE1, Q969F0

Row | effect of a mutation on the interaction | Variant
3 | disrupting interaction strength | K99E

Variants of: B4
Conditions: with meox1_human MEOX1, P50221
Sequence of meox1_human MEOX1, P50221 (P50221 whole entry): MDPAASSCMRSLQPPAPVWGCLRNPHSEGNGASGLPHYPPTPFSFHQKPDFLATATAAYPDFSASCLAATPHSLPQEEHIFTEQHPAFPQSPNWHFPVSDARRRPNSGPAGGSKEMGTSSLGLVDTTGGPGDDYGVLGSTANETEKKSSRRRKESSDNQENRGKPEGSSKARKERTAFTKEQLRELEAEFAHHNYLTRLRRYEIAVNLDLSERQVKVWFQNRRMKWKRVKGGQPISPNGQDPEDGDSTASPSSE

Row | effect of a mutation on the interaction | Variant
4 | with no effect | L626P
5 | with no effect | C266R

Second part, the variant before the results:

Row | Variant | effect of a mutation on the interaction
6 | K370E | with no effect
7 | P151L | with no effect

Variants of: B5
Conditions: with cep76_human CEP76, Q8TAP6

Row | effect of a mutation on the interaction | Variant
8 | disrupting interaction strength | F94S
9 | disrupting interaction strength | V36M
10 | disrupting interaction strength | L69P
